Measured values reported in article PMC4108320, “Two Structurally Different Dienelactone Hydrolases (TfdEI and TfdEII) from Cupriavidus necator JMP134 Plasmid pJP4 Catalyse Cis- and Trans-Dienelactones with Similar Efficiency” (PLoS ONE, 2014).

Substrate: O=C(O)/C=C1/C=CC(=O)O1
Assay: purified protein
Type: biochemical, Cupriavidus pinatubonensis
Conditions: Tris-Cl pH 7.0, 37 °C, 0.5 µM enzyme, 1-1000 µM substrate

B1: TfdEII (Cupriavidus pinatubonensis JMP134) (protein)
chain: MCHDTAPALFPRTASTGSIDGAICALCYAGATRGPRLLVLPDIYGCNAFYRGYAAYLAEQGAGEVLLVDPFAAFGELATVTREAAFQRRHRLADRAYVEELIDFIDGQRIEGVVGFCLGGLFVFELARQQVVSRLVAYYPFPQGLENRDPLDVPFDYLPALRSRHTVIVGDDDALLGTQNLQRLQAQARANDAIDLHIMNGAGHGFLADLESPDTARAAVAKRGLRIGTTTLLGG
notes: full-length tfdEII ORF (708 bp, 235 aa) in pET21b BamHI/HindIII; stop codon in reverse primer; E. coli BL21(DE3); about 25 kDa, monomeric
Km: 178 µM | Vmax: 8.38 µM/min

B2: TfdEI (Cupriavidus pinatubonensis JMP134) (protein)
chain: MLSDGVEITSRSGGRFGAYLGKPTTDSAPIVVIAQEIFGITPFIRETVEWLVGAGFGCVCPDLYWRQAPNIELDANVPSEREQALALFRDFDMEAGVNDLSCAIEYARALPFSNGRVAVVGYCLGGALAFDVAARSLADCSIGYYGVGLEKKVSLVPAITRPAMFHMGTKDHYVTEEARSILEEHFGRNKNLSLHWYPVGHSFARSSSPNFDQAATTVANARTLELLAMLKDPS
notes: full-length tfdEI ORF (705 bp, 234 aa) in pET21b BamHI/HindIII; stop codon in reverse primer; E. coli BL21(DE3); about 25 kDa, monomeric
Km: 84 µM | Vmax: 9.09 µM/min
